In the supplement of paper PMC6757056:
± gives the standard deviation of the averaged measurements.

B1: library; a variant is named by its letters at N, in order (parent)
chain: GCUGUCACCGGUGCUUGGUACGUUAUAUUCAGCCGGUCUGAUGAGUCUNNNNNNAGACGAAACAGC

How the values were obtained:
[1] = variants of: B1; test: normalized RNA/DNA level without ligand (relative to sTRSVctl = 100) (log10 (% of sTRSVctl)); HEK293T overexpressing SLC46A1; higher = less ribozyme self-cleavage, higher mRNA level; conditions: without (6R,S)-folinic acid; ligand present: no
Summary of the method: (§1)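 For each 6-well well, 4 µg of library plasmid encoding mCherry-linked ribozyme switches, or eGFP-linked ones in some ligand experiments, was transfected into HEK293T. Any ligand was added 1 h before transfection, and RNA was extracted with EDTA 72 h after it, then reverse-transcribed, amplified, barcoded and sequenced. RNA level was obtained by dividing RNA reads by DNA reads, normalizing to a spiked-in non-cleaving sequence or to the top sequences, then scaling and log-transforming. The top set was 25 sequences, scaling was ×100 with log10, and ≥100 DNA reads were required.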

[2] = variants of: B1; test: normalized RNA/DNA level with ligand (relative to sTRSVctl = 100) (log10 (% of sTRSVctl)); HEK293T overexpressing SLC46A1; ligand concentration (+) RNA-Seq: 6 mM; higher = less ribozyme self-cleavage, higher mRNA level; conditions: with (6R,S)-folinic acid; ligand present: yes
Summary of the method: as §1

Variant	normalized RNA/DNA level without ligand (log10) [1]	normalized RNA/DNA level with ligand (log10) [2]
GCUGUCACCGGUGCUUGGUACGUUAUAUUCAGCCGGUCUGAUGAGUCUGCGAUAAGACGAAACAGC [GCGAUA]	1.999 ± 0.0087	2 ± 0.011
GCUGUCACCGGUGCUUGGUACGUUAUAUUCAGCCGGUCUGAUGAGUCUGCGAUUAGACGAAACAGC [GCGAUU]	2.032 ± 0.016	2.04 ± 0.048
GCUGUCACCGGUGCUUGGUACGUUAUAUUCAGCCGGUCUGAUGAGUCUGCGAUCAGACGAAACAGC [GCGAUC]	2.039 ± 0.014	2.003 ± 0.015
GCUGUCACCGGUGCUUGGUACGUUAUAUUCAGCCGGUCUGAUGAGUCUACGAUGAGACGAAACAGC [ACGAUG]	1.925 ± 0.016	2.03 ± 0.031
GCUGUCACCGGUGCUUGGUACGUUAUAUUCAGCCGGUCUGAUGAGUCUACGAUAAGACGAAACAGC [ACGAUA]	1.971 ± 0.0039	2.02 ± 0.036
GCUGUCACCGGUGCUUGGUACGUUAUAUUCAGCCGGUCUGAUGAGUCUACGAUUAGACGAAACAGC [ACGAUU]	2.0259 ± 0.00039	2.03 ± 0.026
GCUGUCACCGGUGCUUGGUACGUUAUAUUCAGCCGGUCUGAUGAGUCUUCGCCAAGACGAAACAGC [UCGCCA]	2.027 ± 0.0078	2.03 ± 0.023
GCUGUCACCGGUGCUUGGUACGUUAUAUUCAGCCGGUCUGAUGAGUCUUCGAUCAGACGAAACAGC [UCGAUC]	2.06 ± 0.025	2.03 ± 0.026
GCUGUCACCGGUGCUUGGUACGUUAUAUUCAGCCGGUCUGAUGAGUCUUCGAUUAGACGAAACAGC [UCGAUU]	2.02 ± 0.03	2.04 ± 0.053
GCUGUCACCGGUGCUUGGUACGUUAUAUUCAGCCGGUCUGAUGAGUCUACGAGUAGACGAAACAGC [ACGAGU]	2.027 ± 0.0034	2.028 ± 0.0065
GCUGUCACCGGUGCUUGGUACGUUAUAUUCAGCCGGUCUGAUGAGUCUACGAGCAGACGAAACAGC [ACGAGC]	2.005 ± 0.012	2.041 ± 0.019
GCUGUCACCGGUGCUUGGUACGUUAUAUUCAGCCGGUCUGAUGAGUCUACGAGGAGACGAAACAGC [ACGAGG]	1.86 ± 0.034	1.995 ± 0.011
GCUGUCACCGGUGCUUGGUACGUUAUAUUCAGCCGGUCUGAUGAGUCUACGAGAAGACGAAACAGC [ACGAGA]	1.968 ± 0.011	2.03 ± 0.028
GCUGUCACCGGUGCUUGGUACGUUAUAUUCAGCCGGUCUGAUGAGUCUCCGAGGAGACGAAACAGC [CCGAGG]	2.011 ± 0.006	2.01 ± 0.028
GCUGUCACCGGUGCUUGGUACGUUAUAUUCAGCCGGUCUGAUGAGUCUCCGAGUAGACGAAACAGC [CCGAGU]	2.029 ± 0.014	2.03 ± 0.032
GCUGUCACCGGUGCUUGGUACGUUAUAUUCAGCCGGUCUGAUGAGUCUUCGCAAAGACGAAACAGC [UCGCAA]	1.973 ± 0.017	1.998 ± 0.018
GCUGUCACCGGUGCUUGGUACGUUAUAUUCAGCCGGUCUGAUGAGUCUUCGCACAGACGAAACAGC [UCGCAC]	2.04 ± 0.025	2.03 ± 0.048
GCUGUCACCGGUGCUUGGUACGUUAUAUUCAGCCGGUCUGAUGAGUCUUCGCAGAGACGAAACAGC [UCGCAG]	1.921 ± 0.0076	2.01 ± 0.024
GCUGUCACCGGUGCUUGGUACGUUAUAUUCAGCCGGUCUGAUGAGUCUCCGAUCAGACGAAACAGC [CCGAUC]	2.055 ± 0.018	2.03 ± 0.03
GCUGUCACCGGUGCUUGGUACGUUAUAUUCAGCCGGUCUGAUGAGUCUCCGAUUAGACGAAACAGC [CCGAUU]	2.06 ± 0.051	2.053 ± 0.018
GCUGUCACCGGUGCUUGGUACGUUAUAUUCAGCCGGUCUGAUGAGUCUCCGAUGAGACGAAACAGC [CCGAUG]	2 ± 0.023	1.99 ± 0.036

Variant	normalized RNA/DNA level without ligand (log10) [1]	normalized RNA/DNA level with ligand (log10) [2]
GCUGUCACCGGUGCUUGGUACGUUAUAUUCAGCCGGUCUGAUGAGUCUCCGAUAAGACGAAACAGC [CCGAUA]	1.996 ± 0.0089	2.011 ± 0.018
GCUGUCACCGGUGCUUGGUACGUUAUAUUCAGCCGGUCUGAUGAGUCUCCGCAUAGACGAAACAGC [CCGCAU]	2 ± 0.0024	2.017 ± 0.018
GCUGUCACCGGUGCUUGGUACGUUAUAUUCAGCCGGUCUGAUGAGUCUCCGCACAGACGAAACAGC [CCGCAC]	1.997 ± 0.0034	1.99 ± 0.029
GCUGUCACCGGUGCUUGGUACGUUAUAUUCAGCCGGUCUGAUGAGUCUCCGCAGAGACGAAACAGC [CCGCAG]	1.97 ± 0.004	1.99 ± 0.066
GCUGUCACCGGUGCUUGGUACGUUAUAUUCAGCCGGUCUGAUGAGUCUCCGCAAAGACGAAACAGC [CCGCAA]	1.986 ± 0.018	2 ± 0.042
GCUGUCACCGGUGCUUGGUACGUUAUAUUCAGCCGGUCUGAUGAGUCUGCGAGUAGACGAAACAGC [GCGAGU]	1.99 ± 0.04	2.03 ± 0.051
GCUGUCACCGGUGCUUGGUACGUUAUAUUCAGCCGGUCUGAUGAGUCUGCGAGGAGACGAAACAGC [GCGAGG]	1.98 ± 0.023	2.05 ± 0.046
GCUGUCACCGGUGCUUGGUACGUUAUAUUCAGCCGGUCUGAUGAGUCUACGCCAAGACGAAACAGC [ACGCCA]	2.037 ± 0.012	2.02 ± 0.035
GCUGUCACCGGUGCUUGGUACGUUAUAUUCAGCCGGUCUGAUGAGUCUACGCACAGACGAAACAGC [ACGCAC]	2.024 ± 0.016	2.03 ± 0.027
GCUGUCACCGGUGCUUGGUACGUUAUAUUCAGCCGGUCUGAUGAGUCUACGCAGAGACGAAACAGC [ACGCAG]	1.934 ± 0.018	2.01 ± 0.027
GCUGUCACCGGUGCUUGGUACGUUAUAUUCAGCCGGUCUGAUGAGUCUACGCAUAGACGAAACAGC [ACGCAU]	1.987 ± 0.012	2.01 ± 0.014
GCUGUCACCGGUGCUUGGUACGUUAUAUUCAGCCGGUCUGAUGAGUCUACGCAAAGACGAAACAGC [ACGCAA]	1.988 ± 0.011	2.01 ± 0.031
GCUGUCACCGGUGCUUGGUACGUUAUAUUCAGCCGGUCUGAUGAGUCUGCGCAAAGACGAAACAGC [GCGCAA]	1.948 ± 0.0028	1.98 ± 0.027
GCUGUCACCGGUGCUUGGUACGUUAUAUUCAGCCGGUCUGAUGAGUCUGCGCAGAGACGAAACAGC [GCGCAG]	2 ± 0.022	2.03 ± 0.027
GCUGUCACCGGUGCUUGGUACGUUAUAUUCAGCCGGUCUGAUGAGUCUGCGCAUAGACGAAACAGC [GCGCAU]	1.9847 ± 0.0014	2 ± 0.038
GCUGUCACCGGUGCUUGGUACGUUAUAUUCAGCCGGUCUGAUGAGUCUGCGCCAAGACGAAACAGC [GCGCCA]	2.08 ± 0.023	2.03 ± 0.03
GCUGUCACCGGUGCUUGGUACGUUAUAUUCAGCCGGUCUGAUGAGUCUUCGAGCAGACGAAACAGC [UCGAGC]	2.022 ± 0.017	2.026 ± 0.011
GCUGUCACCGGUGCUUGGUACGUUAUAUUCAGCCGGUCUGAUGAGUCUUCGAGGAGACGAAACAGC [UCGAGG]	1.938 ± 0.017	2 ± 0.025
GCUGUCACCGGUGCUUGGUACGUUAUAUUCAGCCGGUCUGAUGAGUCUUCGAGAAGACGAAACAGC [UCGAGA]	2.006 ± 0.0024	2.07 ± 0.049
GCUGUCACCGGUGCUUGGUACGUUAUAUUCAGCCGGUCUGAUGAGUCUCCGCCAAGACGAAACAGC [CCGCCA]	2.0675 ± 0.0011	2.04 ± 0.035
